Key:
[1] = target: the molecule itself; assay: SEC-MALS; phosphorylated HopQ1 mixed with Nt14-3-3a at a 1:2 mass ratio, 2 h at 4°C; Superdex 200 10/300GL, 100 mM Tris-HCl pH 8.0, 150 mM NaCl, 5 mM DTT
[2] = target: T1, HopQ1-6xHis, in vitro phosphorylated by AtCPK3 (Pseudomonas syringae pv. phaseolicola …, UniProt Q48BD8 1-447, in vitro phosphorylated by AtCPK3; phosphorylated residues of this sample not given); assay: as above; conditions: both partners purified
T1 construct: HopQ1 (Hrp outer protein Q), type three effector of Pseudomonas syringae pv. phaseolicola 1448A, GenBank AAZ37975.1; also called phosphorylated HopQ1; recombinant HopQ1; source: phosphorylated in vitro by GST-AtCPK3, then ion-exchange and size-exclusion chromatography
T1 sequence: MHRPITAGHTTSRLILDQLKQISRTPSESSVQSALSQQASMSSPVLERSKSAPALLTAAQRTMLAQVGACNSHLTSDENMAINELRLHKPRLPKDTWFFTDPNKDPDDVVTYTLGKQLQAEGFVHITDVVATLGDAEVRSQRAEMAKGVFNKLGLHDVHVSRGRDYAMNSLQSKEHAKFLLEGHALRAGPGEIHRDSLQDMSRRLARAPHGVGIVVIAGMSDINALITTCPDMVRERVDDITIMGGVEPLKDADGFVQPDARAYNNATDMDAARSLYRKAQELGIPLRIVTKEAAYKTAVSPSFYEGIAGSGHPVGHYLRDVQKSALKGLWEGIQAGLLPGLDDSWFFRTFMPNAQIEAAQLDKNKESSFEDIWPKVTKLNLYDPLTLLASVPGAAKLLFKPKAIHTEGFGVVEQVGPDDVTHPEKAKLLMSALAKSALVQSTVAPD

B1: Nt14-3-3a protein tagged with Strep-tag II (natural protein, UniProt Q75ZE5 1-255, looked up)
chain: MASPREENVYLAKLAEQAERYEEMVEFMEKVVGAGDDELTVEERNLLSVAYKNVIGARRASWRIISSIEQKEESRGNEDHVASIKTYRSKIESELTSICNGILKLLDSKLIGTAATGDSKVFYLKMKGDYYRYLAEFKTGAERKEAAENTLSAYKSAQDIANVELAPTHPIRLGLALNFSVFYYEILNSPDRACNLAKQAFDEAIAELDTLGEESYKDSTLIMQLLRDNLTLWTSDMQDDGTDEIKEPSKAEEQQ
notes: 14-3-3a protein, Nt14-3-3a, GenBank BAD12168.1; also called 14-3-3 dimer; not shown: Strep-tag II, C-terminal, kept
- stoichiometry N [1]: 2
- stoichiometry N [2]: 2 14-3-3a per HopQ1
